“Also recorded” adds a separate entry of the source.
Key:
[1] = In solution state by SEC MALLS; assay type: physicochemical; settings: Superdex 200, 20 mM citrate, 0.1M NaCl
Method: The aim of this experiment was to determine the in solution state of DAT0115, DAT0117 and DAT0120 by SEC MALLS. Samples were purified and dialysed into appropriate buffer (PBS) and filtered after dialysis, concentration was determined and adjusted to 1 mg/ml. BSA and HSA were purchased from Sigma and used without further purification. Shimadzu LC-20AD Prominence HPLC system with an autosampler (SIL-20A) and SPD-20A Prominence UV/Vis detector was connected to Wyatt Mini Dawn Treos (MALLS, multi-angle laser light scattering detector) and Wyatt Optilab rEX DRI (differential refractive index) detector. The detectors were connected in the following order—LS—UV—RI. Both RI and LS instruments operated at a wavelength of 488 nm. […] The traces are then analysed using ASTRA software, and the signals are normalised aligned and corrected for band broadening following manufacturer's instructions. […] The dilution that takes place on the column is about 10 fold, so the concentration at which in-solution state is determined is 100 ug/ml, or about 8 uM dAb. […] 16, 1093-1099 (1948)]: The calculations were performed automatically by ASTRA software, resulting in a plot with molar mass determined for eath of the slices [Astra manual]. […]

[2] = mouse, in vivo, 1 mg/kg
Method: This was followed by ion exchange chromotography on a Resource S column using a 0-1M salt gradient in 20 mM acetate pH5.0. Fractions containing the desired protein were then combined and buffer exchanged into 100 mM NaCl, 20 mM citrate pH6.2. Protein was filter sterilised, buffer exchanged and endotoxin removed ant tested prior to use in vivo. […] At predose, 0.25, 0.5, 1, 4, 7, 12, 24, 36, 48 and 60 hours after dosing for the iv doses and predose, 0.5, 1, 4, 7, 12, 24, 36, 48 and 60 hours after dosing for the sc doses blood samples were collected by terminal bleed and plasma prepared. Plasma samples were frozen and later defrosted for analysis of DAT0115, DAT0116 or DAT0117 levels as appropriate by solid phase extraction and LC/MS/MS to detect the presence of a fragment of the protein (from the exendin-4 section of the protein). Calculated plasma levels were then used to fit pharmacokinetic parameters using WinNonLin software. Half life after subcutaneous and intravenous administration and bioavailability is outlined in the table below. It was concluded from the results (see table 7 below) that all three compounds show desirable pharmacokinetic parameters in a mouse model of type II diabetes.

HSA = HSA (Homo sapiens, UniProt P02768); assay type: binding
Method: The analysis was performed using a streptavidin chip (SA) coated with biotinylated serum albumin. 200-1000 resonance units (RUs) of each serum albumin was immobilised on the chip. Flow cell 1 was uncoated, flow cell 2 was coated with HSA, flow cell 3 was coated with RSA and flow cell 4 was coated with CSA. A range of concentrations of fusion was prepared (in the range 15.6 nM to 2 μM by dilution into BIACORE HBS-EP buffer (0.01M HEPES, pH7.4, 0.15M NaCl, 3 mM EDTA, 0.005% surfactant P20) and flowed across the BIACORE chip.
Affinity (KD) was calculated from the BIACORE traces by fitting on-rate and off-rate curves to traces generated by concentrations of dAb in the region of the KD.

Exendin 4 (G4S linker)3 DOM7h-14 dAb fusion [DAT0115]
in-solution state (self association) ([1]; pH6.2): eluted in a single peak; also recorded: significantly less (and possibly no) self association | Mw determined across the peak (SEC MALLS) ([1]; pH6.2, 0.5 ml/min, expected monomer 16.9 kDa): 17.4 kDa | Bioavailability [2]: 65% | Half-life after intravenous administration ([2]; iv): 13.8 | Half-life after subcutaneous administration ([2]; sc): 18.6 | Kd (HSA): 600 nM

— patent US20130189255A1, “FUSIONS AND CONJUGATES OF INSULINOTROPIC AGENTS” (GLAXO GROUP LIMITED, priority 2008, published 2013)
